Common to all, as to experiment: cell-based or functional assay
Assay [1] addresses T1, smt3-mATGL288-StrepII I212S (Mus musculus, UniProt Q8BJ56 1-288, I212S).
T1 sequence (looked up): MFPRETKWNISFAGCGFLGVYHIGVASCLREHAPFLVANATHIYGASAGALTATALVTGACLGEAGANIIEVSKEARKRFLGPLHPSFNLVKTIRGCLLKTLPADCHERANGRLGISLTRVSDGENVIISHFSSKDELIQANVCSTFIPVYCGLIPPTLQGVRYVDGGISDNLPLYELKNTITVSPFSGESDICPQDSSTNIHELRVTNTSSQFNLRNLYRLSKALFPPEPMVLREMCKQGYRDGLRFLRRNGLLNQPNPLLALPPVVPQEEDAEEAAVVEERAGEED

The target in assay [2] is T2, smt3-mATGL288-StrepII I212A (Mus musculus, UniProt Q8BJ56 1-288, I212A).
T2 sequence (looked up): T1 sequence (looked up) with S212A

Assay [3] has as its target T3, smt3-mATGL288-StrepII N209A (Mus musculus, UniProt Q8BJ56 1-288, N209A).
T3 sequence (looked up): T1 sequence (looked up) with N209A, S212I

The target of assay [4] is T4, smt3-mATGL288-StrepII N215A (Mus musculus, UniProt Q8BJ56 1-288, N215A).
T4 sequence (looked up): T1 sequence (looked up) with S212I, N215A

The target in assay [5] is T5, Xpress-mATGL, full-length, WT (Mus musculus, UniProt Q8BJ56 1-486).
T5 sequence (looked up): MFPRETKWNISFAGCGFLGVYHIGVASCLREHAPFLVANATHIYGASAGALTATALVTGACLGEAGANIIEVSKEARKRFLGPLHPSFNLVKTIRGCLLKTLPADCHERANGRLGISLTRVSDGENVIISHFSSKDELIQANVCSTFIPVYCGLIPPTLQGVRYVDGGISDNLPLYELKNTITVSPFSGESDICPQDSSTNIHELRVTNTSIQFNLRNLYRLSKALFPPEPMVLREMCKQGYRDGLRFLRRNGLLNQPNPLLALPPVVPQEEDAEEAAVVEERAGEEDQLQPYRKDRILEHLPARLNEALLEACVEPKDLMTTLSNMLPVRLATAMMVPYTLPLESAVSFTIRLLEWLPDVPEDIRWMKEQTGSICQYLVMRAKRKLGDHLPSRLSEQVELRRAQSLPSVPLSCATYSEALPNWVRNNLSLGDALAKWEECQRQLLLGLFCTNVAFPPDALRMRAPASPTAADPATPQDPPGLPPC

Assay [6] has as its target T6, smt3-mATGL288-StrepII (mouse adipose triglyceride lipase truncated after residue 288), WT (Mus musculus, UniProt Q8BJ56 1-288).
T6 sequence (looked up): T1 sequence (looked up) with S212I

Assay [7] addresses T7, Xpress-mATGL288, WT (truncated after residue 288) (Mus musculus, UniProt Q8BJ56 1-288).
T7 sequence (looked up): T1 sequence (looked up) with S212I

For assay [8], the target named is T8, Xpress-mATGL288 N209A/I212A/N215A (Mus musculus, UniProt Q8BJ56 1-288, N209A | I212A | N215A).
T8 sequence (looked up): T1 sequence (looked up) with N209A, S212A, N215A

Numbering of substitutions follows the chain as printed.

B1: smt3-mCGI-58-His6 (mouse comparative gene identification-58) (natural protein, UniProt Q9DBL9 1-351, looked up)
chain: MKAMAAEEEVDSADAGGGSGWLTGWLPTWCPTSTSHLKEAEEKMLKCVPCTYKKEPVRISNGNRIWTLMFSHNISSKTPLVLLHGFGGGLGLWALNFEDLSTDRPVYAFDLLGFGRSSRPRFDSDAEEVENQFVESIEEWRCALRLDKMILLGHNLGGFLAAAYSLKYPSRVSHLILVEPWGFPERPDLADQERPIPVWIRALGAALTPFNPLAGLRIAGPFGLSLVQRLRPDFKRKYSSMFEDDTVTEYIYHCNVQTPSGETAFKNMTIPYGWAKRPMLQRIGGLHPDIPVSVIFGARSCIDGNSGTSIQSLRPKSYVKTIAILGAGHYVYADQPEEFNQKVKEICHTVD
In the case of B1, the “EC50 of mCGI-58 for coactivation of TG hydrolase activity (25 μg bacterial lysate with mATGL288 I212S, purified mCGI-58 up to 2,300 nM)” value in assay [1] came out at 200 nM. In addition, in assay [2], the “EC50 of mCGI-58 for coactivation of TG hydrolase activity (25 μg bacterial lysate with mATGL288 I212A, purified mCGI-58 up to 2,300 nM)” value worked out at 500 nM. The “EC50 of mCGI-58 for coactivation of TG hydrolase activity (25 μg bacterial lysate with mATGL288 N209A, purified mCGI-58 up to 2,300 nM)” value in assay [3] is 500 nM. In assay [4], the “EC50 of mCGI-58 for coactivation of TG hydrolase activity (25 μg bacterial lysate with mATGL288 N215A, purified mCGI-58 up to 2,300 nM)” value was 200 nM. In addition, the “fold activation of TG hydrolase activity by mCGI-58 (Expi293F lysate)” value in assay [5] was about 20 fold; in assay [7], 11 fold; in assay [8] it was at most 2 fold. For the same molecule, the “EC50 of mCGI-58 for coactivation of TG hydrolase activity (25 μg bacterial lysate with mATGL288, purified mCGI-58 up to 2,300 nM)” value in assay [6] amounted to 178 nM.
